Data reported in the domain aggregation screens of Martell et al. (2025).

Assay: soluble fraction after stress (log2 fold change); higher = more stays soluble; pooled small domains, quantitative proteomics
Details: stress: 50 degC
Method in brief: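 Pooled custom libraries of small protein domains were each held under stress at 50°C. The read-out, high-throughput quantitative proteomics, tracked how much of each protein stayed soluble. This is reported as a base-two log fold change used to indicate aggregation propensity. Higher values mean more protein remains in solution.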

Row | Sequence | soluble fraction (log2)
1 | HMNNQIFGLKFRQLRKQQHITLAKAAAGITSRQSLGNWETGKGELAFEKVLLLLKKINVQPIDFLESSIS | -3.67
2 | HMNAVYAEERRAYILAALEKRGTVHSYELAEQMGVSRETIRRDIMELSNRGLLVKTHGGAIST | -0.686
3 | HMSKKMTNEEILNFLKKVLIKHGKISGFIIDEDDNGPSSSVVASRFGGLLNAYKLINYTPER | -0.506
4 | HMIHDSAESVVFPFGKYKGYTLAHVIREHPHYTYWIRDNADFSPLWREAVSLALQNRDIGHLNLPHVK | -0.416
5 | HMGVTVDEVHRNFESGMNVVHKKFGAGVVDSFDEGKIRINFDGVIKVFIADVLINSGMLESVSYTH | -0.212
6 | HMGQTDTIIKTTTDLYYEMSTMSDDDKLVVAQTLRDVWMAVGRWSGKLSKKQREKVAEVKRVLGE | -0.833
7 | HMELGRQDSAQLGRWAAGILAKNGKKITGRTMEFFLSRTGDDMENISSELEKLISYTLGREVITEEDIEAV | -0.351
8 | HMKILNYQSLVGKKGITKSMLRPAGIVEIEGRRYDVVTRGEFIEPGKMITVDEVQGNRIIVQIERE | -0.165
9 | HMELEENTERVLNILIENDIISENDIAEKLEVKINGARKALYKLKEVGFVEYTKERDEEKKWWYIYFWKLN | -0.0109
10 | HMKEDSTIIERIISNLSSASLKTQKAFEYKLTDLMFRFSEGEYEWSSAMEVIREELLPFLNK | 0.0862
11 | HMRPSGEAVNAAYRLLKGANPSGNEGDLIQRAQEVAAILPKLNRSSAAAFAKDAKANGLTQAETIALWKGS | 0.225
12 | HMPTMTDIPIKIIRSRRRTLAIEVREGGEVIVRAPLYSRKAEIDAFVKAHENWIITKYNLMITKQN | -1.74
13 | HMSTFAQNLRALMEKRGVSQNELARSAGLTQSAINKILTGKTKQPGIDTTEAIARVLNVSVAQLIYT | -0.303
14 | HMSSDEAEYKLLLGQEGVAKSPLRPSGVVDFSGRRLDVQTLGDFIESGETVVVKQVNGHRVLVERK | 0.158
15 | HMNILVAISDTGEIWINKRRVDARAVQANIERLHAENPQGTVVIQADKQATTETLIKVMDASRAAGVFDVS | -0.618
16 | HMSTKYSSNIISLVKGLMEEDQYKDLMGPPLKKEIIKKVESITDTFPYKFDKDDKEFIVKKVLISLRK | -1.29
17 | HMRSYTPGSAFRLSSVPVYNAETGPSIGVRSGTYYIHSLPVSNGRIRMTNLISRVGKPGQVSFWVEISR | -2.45
18 | HMSFDNIKVGYISETAGYVKGISLADANEYAKLNPDTEFIFIDGDEKVRFLTINEVNGLTPKNLLRSDP | -0.23
19 | HMKQKAEVIFVSKTIMEALSKGVRLTPENLKSETELPIDDFYARLKELIDNGSVVESRENGESYLEAGN | 0.0977
20 | HMKAGAVFNEGDVLYPKIGGLKLMAAAGEGGKVVATLAKTDEMIYMGEEQSGFVKVESGSGSGWVKKILVA | 0.366
21 | HMVPSTAVIFTELVSMRSEPATKSPVTHQLTKGTAITINEEKDGWYQVTDQTGNSGWIVKWAVKPTYFTNP | -0.0492
22 | HMLDVFSAEQVADVLSVSKRNLETWANNGKLIPDFIHGEVALYSKKQLEQFEQFQRFFNSSWDAERLIQP | -0.947
23 | HMKTLPADPTVKNFSYTVVDGEIYYRENSIMTQIELSDNAKGRVAGMVELRQIVNELIDQQLND | -0.896
24 | HMNADAPWSPFSPGFTGPMNRPVIGLVTKADLANPQRISLVESWLVQAGAQKVFVTSALENTGVDEMFIFL | -0.124
25 | HMNYSIVNVGFNNKSLFLRSAPGYSASRLLLPFATERAFVRETLSNGWSRVIVRGTEGYLPTEYVAD | 0.179

Row | Sequence | soluble fraction (log2)
26 | HMTKAILTANDVRNGDIVFWTADQRWSTSIDDAAIGYGKDDTDQLADAGKQAEAANTVVGAYLIALR | -0.276
27 | HMINAQETEIYRFLIEKANRLYSMVLGLKREELMTATRQFEEEVKHSSIHHLPKIYQAFSSYLELLERG | -0.478
28 | HMAVSDPTAGGIKALMYPNPAQDRLSVALDIPAGLDKQAQMTVTDMMGRVVTQQQVTLNDGFQVFEL | 0.215
29 | HMNIAAVIGQTGVLQDDLKAGEQGTVKADNKLWTAVLAEGEEAVKKEERVDIVAVEGVKLIVRRNI | 0.0397
30 | HMGLPPIATGVNDNMSFSQAFAAARAEVGAGGAFEWHGRVYGTYYKNEWDGMSAQERHDFEIAAIRGS | -0.166
31 | HMISEAEGTILQLLKEADGTLPFTYKSDADEIKKVFGMSKKNFKRTLTELIEAKKIQLLDDAIVL | -0.459
32 | HMKPVYNKVEIPRGGEYALVLSDGTKVHLNSMSSLRFPVAFTTGKREVELQGEAYFEVSKTGQPFIVNV | -0.0523
33 | HMVRGNLAEELLKLREEEGISFQEAGARSGIARSTISQVVNQGLRLKPNQEESLWRVIEEVRGVKER | 0.046
34 | HMREWPLWEIFIRGQHGLNHRHVGSLHAPDAAMAIGNARDVYTRRNEGVSIWAVRSADVVASVPSE | -2.33
35 | HMAQVSDTGELEGVVDGVLAANAKSVADFQAGKENAFQYLIGQVMKETKGKANPEVVATLLRTKLS | -0.382
36 | HMDVMNEIQQKAFDIYIQSASLKNDFTPISERALAKKLHDMGLKSSMSAIGRWKKKFGWVQSLQNKVTLA | -0.128
37 | HMYNNGYVNSDRVNFRKGASTNSDIYKVLDKNTSVTILDYEGDWSKVKINDTVGYVYTKYITAG | 0.134
38 | HMTVLPTENDAKALVGLNEDEAVKIIEGNGWTYRIGSRDGEQFMLTEDYSTSRLTLGIEKSIVVTATI | -0.151
39 | HMIESFQNGLVEHDQFTRPNPWVTPNFSKIEVPSILLSGKHADIDLWKHQNSIENTKKNRPDLFKNYLKKN | 0.211
40 | HMADLNFHQQIRSLPPEQQEILLLRFGQELTLRQIAQVTGVPLRTVQSRLRAALKKLKSQLEKEE | -0.39
41 | HMGTRPIQIASFSKEENAKRAVEALAKIGITAQPQKSGSATKAVWGVVANGDADLLAKIKAAGFADAYFL | 0.0667
42 | HMDPEEETLKNMQRMLQDSGPLKKTEFSLLAKSLGIAEKKARKLIDRGRGRFWTVESGEQKNTQLVTPIQ | -0.0247
43 | HMFETLVLALAQAWPAERGPVEALQFEGGRLSLQRSGFADEQVEALRQRLSSEGWTLQTEQGRLILNKAG | -0.884
44 | HMAENMNAALRVSSLINQIGTVNAKAKDRIESARKAYDALSEAQKAYVANLTTLETAETSLSKL | 0.179
45 | HMYSMSAPMPGVILEIKVAPGDQVNKGDVVMVLEAMKMKNDLHAARTGTVESIDINSGEQVKYGQVLLRFV | -0.14
46 | HMIVSVPNVRGMGESKAAAALQNRGLLVSIDYESSTSASQGEVIRQSISPGTEVTKGSSITIIIAVSPN | -0.0262
47 | HMSMNGNMIHATVIWKGRYFLVKMFFPQLTKPKRAEVQAQIEKAYPGSRVASYHITDYKPGEQFLHV | -1.51
48 | HMIDTPQELARLLRLLDEQNFEAEILFHKLRPDLLHLWSKEHVTRIAEALDAFDYQMALTLLNASP | -2.23
49 | HMTMNYFIIENNQQVGPLTLEQLVARNITSDTLVWKEGMEDWQPAWKVDELHTVLDQIRANAEQ | -0.0599
50 | HMLQKEVHQQIQQALRALPYHQRTAIVLYYYEGMSVKEIAQATGSMQGTVQSRLFFARKKLRPILESILKK | -0.453

Row | Sequence | soluble fraction (log2)
51 | HMSFVAYEEEKAIGMVRLIGDGGMSFYIKDFAVLPGHQGKGVGQMLLMELQQYLLEHKPADWAVSLE | -0.329
52 | HMLTRSTVNVETGTAAIGLGKLYGVYDMSRKGLKYSFSVDSDAMTKVMEMLLPLGIKSLTVEPPS | -1.57
53 | HMQISDSASVKTVVAEAIAANPKAVADFMNGKDTATRYLVGQVMKITKGQAKPELVNQLVLESLAELKEK | 0.335
54 | HMGHRQRRARARNRSMLEDIPGLGPKRRQQLLRQFGGLPQLMRAGVAELSQVPGISDSLARKIHAELHPES | -1.77
55 | HMPRPRIHSVVRGDTLYGISRQYGVAMSKLASLNGLKSPYRIMVGRSLRLPSAIEAERDRTAREVVQ | -1.45
56 | HMPPAIKTLMFMIQNKSLLKSPKQLAVVQQQLKKIKGVRDVLILLEEGKVMLKVNKHETIHEASIIRLLGG | -0.521
57 | HMVDTEVFSRLLRKVLAGDVTSAIRILEELIVGGRELSQFVGDFTWYMRNLLLVKTSDNPEEA | -0.397
58 | HMKITKIWFTADHIFGRDEEGKEYSQSLLWYPKLSAASDEERSQYTFGYDGIHWRSLDEDISFESF | -3.98
59 | HMEDIPENIRYKFLLKELKENEHLNILDKENIARKLTEIDLPELEKELLENEILNSTIKDYLGIKLV | 0.173
60 | HMVIGKHSGSHTLVNDLAKRGITLDKEESATLLEMVRKAAVGLHRSISSDELYGLYKDMKSGQDPFEDS | 0.0935
61 | HMDKTTIKNEQKKQILIFAEMNLFFKAKDVAELLGLQASRARYLLQELVKDGKIQGIGNNKGRKYQLI | -0.438
62 | HMKFHENLIALRRREGWSQEELGNRIGVTRQTVSKWELGLTTPELEKLVQLADVFGMTTDQLVGR | -0.146
63 | HMSNTPHSREVLLEMDAVRRLLAVGEEKGEVDRADLQGAFEEAELGRGDLDGVLSILREYDVPLAR | 0.0709
64 | HMTLSHAINRLRLNANMSQEQFAGLFHVSQQSVQKWESGDSVPELSKLIAIAKHFGISLDALILGN | -0.614
65 | HMELDLPLEELGLSTRVLHSLKEEGIESVRALLALNLKDLKNIPGIGERSLEEIKEALEKKGFTLK | -0.0498
66 | HMIILDASASRAIGNGTIEETKWDFGNGESSTNRGGPIVERQIYANQAAYILKLSMKTNDGQLFTKEIQLL | -0.0666
67 | HMNDVEAIDDALKDLHKVSPDLAALVEMKFFGGMTEPEISEILGVSERTVRREWEKARAALLVLLE | -1.41
68 | HMNSPSKVIDISQLRKGMFVQLDLGWMSHPFAVGSFKVSTDEQIQTLRGLGLSEVRYIPEKSDPA | -0.514
69 | HMGKNIQAIRYKNNMTQDQVVAKLNLMGISITKSTYAKLETNRMNIKASELVALAKLFHTDINAFFSG | -3.24
70 | HMFDKVSVNNLAEAIGRLDGIYQDVLRLYYVHELPSKEIGKILNINHLTVNTRLKRAREKLFKMLKEE | -2.57
71 | HMQDTTLTSQILRVPSSVNINDLANVLKSLAGKNTVVAPYKAANTIIITGYAPNVRRVLSLANELIPRLDV | -0.53
72 | HMRTAELEVWDDDELNDVVKLIQNNHNINTLKLRFQENVSFSGLSLIAAVLTKQSIILEIEY | 0.0488
73 | HMELPADLATVLSVDDIRAIALAEVPGSTITGVELEREEGVLVYKVKFNDGSYKLYDANTGELV | 0.174
74 | HMEKPTRNKLVEIIIQNKNVTTEQMANLLNISRRAVAKHIKKLQEEGIIRRIGPDFGGHWEIVK | 0.0258
75 | HMNHSITLTERKNLLITGVKKIENFDKEEFLIETTMGFLVVKGDGLELIKLDTISGNVSIKGIVNGFTYID | 0.223
